Data on two molecules can be found in patent US20150362496A1 (ONCOMATRYX BIOPHARMA S L, published 2015).

B1: peptide YNYGTMESYQTEAPR (peptide)
peptide: YNYGTMESYQTEAPR
notes: 15-residue peptide of the proCOL11A1 VAR region; also called the mentioned peptide
B2: 1E8.33 monoclonal antibody (antibody, V domains shown)
VH: EVQLQESGPELVKTGSSVKISCKASGYSFTGYYMHWVKQSQGKSLEWIGYINCYNGATSYNRNFKGKATFTVDTSSSTAYMQFNSLTSGDSAVYYCAIWDYEFHVMDYWGQRTSLTVSS
VL: ENVLTQSPAIMSASLGEKVTMSCRASSSVNYMYWYQQKSDASPKLWIYYTSNLAPGVPARFSGSGSGNSYSLTISSMEGEDADTYYCQQFTSSPWTFGGGTKLEIK
notes: they are variable domains only; also called 1E8.33 mAb; 1E8.33 clone

The target of assay [1] is B2. The assay can be described thus: peptide blocking of 1E8.33 in Western blot of A204 cells. The protocol: FIG. 8: 1E8.33 mAb blocking test for locating the epitope, performed by means of Western blot of A204 cells. The detection was performed with a mixture of the antibody and different peptides. Lane 1: negative control without antibody. Lane 2: FQEYNYG. Lane 3: […]. Lane 4: […]. Lane 5: […]. Lane 6: […]. Lane 7: positive control with the unblocked 1E8.33 mAb. Complete blocking was observed only in lane 6.

Assay [2] deals with T1, proCOL5A1 expressed in SAOS-2 osteosarcoma cells (UniProt P20908 38-1838, limits assumed).
T1 construct: Endogenous protein in cells, stained by immunocytochemistry
The assay can be described thus: immunocytochemistry on SAOS-2 cells.

T1 sequence (P20908 38-1838 limits assumed): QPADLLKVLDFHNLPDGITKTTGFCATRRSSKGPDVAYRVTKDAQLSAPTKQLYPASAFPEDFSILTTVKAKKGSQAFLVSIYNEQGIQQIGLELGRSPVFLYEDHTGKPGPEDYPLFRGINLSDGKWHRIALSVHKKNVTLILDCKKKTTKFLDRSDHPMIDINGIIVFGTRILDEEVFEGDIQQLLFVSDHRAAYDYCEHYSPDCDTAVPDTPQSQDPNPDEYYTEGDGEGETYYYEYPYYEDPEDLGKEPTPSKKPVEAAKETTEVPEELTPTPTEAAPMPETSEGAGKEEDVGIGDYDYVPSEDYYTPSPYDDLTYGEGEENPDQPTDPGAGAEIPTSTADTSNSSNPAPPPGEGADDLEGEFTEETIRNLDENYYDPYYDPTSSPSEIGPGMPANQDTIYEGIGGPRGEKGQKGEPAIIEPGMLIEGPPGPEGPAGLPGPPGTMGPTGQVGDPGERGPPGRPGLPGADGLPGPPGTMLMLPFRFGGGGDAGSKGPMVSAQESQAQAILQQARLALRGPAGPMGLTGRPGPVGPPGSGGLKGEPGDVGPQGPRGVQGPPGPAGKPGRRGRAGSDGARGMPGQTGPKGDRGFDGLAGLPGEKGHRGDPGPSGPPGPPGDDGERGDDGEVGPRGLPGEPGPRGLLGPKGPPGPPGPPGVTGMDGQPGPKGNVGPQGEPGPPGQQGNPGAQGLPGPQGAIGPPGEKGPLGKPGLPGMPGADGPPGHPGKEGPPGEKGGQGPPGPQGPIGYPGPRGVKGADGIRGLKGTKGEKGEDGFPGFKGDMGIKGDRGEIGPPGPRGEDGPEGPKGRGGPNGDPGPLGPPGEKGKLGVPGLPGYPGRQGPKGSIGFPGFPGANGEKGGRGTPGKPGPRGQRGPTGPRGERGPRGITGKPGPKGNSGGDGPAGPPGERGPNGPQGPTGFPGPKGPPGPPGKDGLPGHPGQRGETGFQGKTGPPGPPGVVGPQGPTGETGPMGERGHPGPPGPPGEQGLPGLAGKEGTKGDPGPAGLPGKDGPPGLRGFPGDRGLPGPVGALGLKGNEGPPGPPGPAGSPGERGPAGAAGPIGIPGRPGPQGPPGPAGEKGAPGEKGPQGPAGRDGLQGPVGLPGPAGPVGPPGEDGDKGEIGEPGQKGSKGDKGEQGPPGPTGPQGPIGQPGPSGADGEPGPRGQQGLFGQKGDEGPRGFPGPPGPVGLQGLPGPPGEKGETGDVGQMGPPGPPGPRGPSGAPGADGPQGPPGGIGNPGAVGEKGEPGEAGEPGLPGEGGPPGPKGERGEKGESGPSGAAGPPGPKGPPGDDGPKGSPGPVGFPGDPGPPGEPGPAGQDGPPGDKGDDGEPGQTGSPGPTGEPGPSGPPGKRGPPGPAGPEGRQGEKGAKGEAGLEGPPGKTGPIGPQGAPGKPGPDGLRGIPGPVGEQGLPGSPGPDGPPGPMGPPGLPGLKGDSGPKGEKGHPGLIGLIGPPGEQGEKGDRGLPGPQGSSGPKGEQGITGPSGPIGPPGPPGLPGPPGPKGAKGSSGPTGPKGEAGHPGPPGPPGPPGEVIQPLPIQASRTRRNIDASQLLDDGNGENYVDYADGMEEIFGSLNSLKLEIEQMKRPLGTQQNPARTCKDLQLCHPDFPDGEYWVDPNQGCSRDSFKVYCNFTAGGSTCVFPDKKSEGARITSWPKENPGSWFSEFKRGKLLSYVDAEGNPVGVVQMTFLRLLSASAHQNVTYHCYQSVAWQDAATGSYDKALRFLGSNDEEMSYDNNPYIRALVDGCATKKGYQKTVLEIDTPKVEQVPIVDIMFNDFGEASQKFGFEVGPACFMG

B1: the binding result in assay [1] is “binds”.

As for B2, the binding result in assay [2] was “no binding”.
